Results: patent US20200123265A1 (AGENUS, published 2020)

T1: V1M cynomolgus GITR, expressed on 1624-5 cells (cynomolgus, UniProt Q9Y5U5 26-241 (human entry))
T1 chain: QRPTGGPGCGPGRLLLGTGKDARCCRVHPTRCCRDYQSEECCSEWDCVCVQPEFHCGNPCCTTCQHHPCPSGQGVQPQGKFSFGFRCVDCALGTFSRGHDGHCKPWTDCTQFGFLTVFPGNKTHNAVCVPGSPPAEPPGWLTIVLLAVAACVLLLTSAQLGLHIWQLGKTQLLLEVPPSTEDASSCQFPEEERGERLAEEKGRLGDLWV

T2: GITR antigen (R&D systems, disulfide-linked homodimer; 689-GR) (human, UniProt Q9Y5U5 26-161, R-PE labeled in the Luminex assay; amine-coupled to a CM5 chip in the SPR assay)
T2 construct: Bought reagent; also called R-PE labeled GITR antigen
T2 sequence (looked up): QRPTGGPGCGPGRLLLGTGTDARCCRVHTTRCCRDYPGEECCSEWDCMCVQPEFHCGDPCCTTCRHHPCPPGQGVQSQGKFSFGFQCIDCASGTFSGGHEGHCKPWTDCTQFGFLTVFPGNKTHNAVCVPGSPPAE

T3: human GITR G63A mutant, expressed on 1624-5 cells (human, UniProt Q9Y5U5 26-241)
T3 chain: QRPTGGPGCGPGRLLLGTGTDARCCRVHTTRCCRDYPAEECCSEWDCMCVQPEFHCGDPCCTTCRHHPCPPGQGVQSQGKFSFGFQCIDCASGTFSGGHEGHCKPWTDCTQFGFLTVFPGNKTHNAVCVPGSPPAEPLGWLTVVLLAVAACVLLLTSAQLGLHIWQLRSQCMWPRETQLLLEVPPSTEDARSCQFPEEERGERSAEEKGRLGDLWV

T4: human GITR D60A mutant, expressed on 1624-5 cells (human, UniProt Q9Y5U5 26-241)
T4 chain: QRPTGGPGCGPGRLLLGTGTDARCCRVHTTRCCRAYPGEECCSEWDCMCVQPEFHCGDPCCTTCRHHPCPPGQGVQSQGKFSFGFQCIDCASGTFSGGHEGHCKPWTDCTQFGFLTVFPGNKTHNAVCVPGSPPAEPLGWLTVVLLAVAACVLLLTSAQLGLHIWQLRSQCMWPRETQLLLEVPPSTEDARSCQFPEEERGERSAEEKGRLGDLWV

T5: V1M/Q62P/S63G cynomolgus GITR, expressed on 1624-5 cells (cynomolgus, UniProt Q9Y5U5 26-241 (human entry))
T5 construct: V1M lies in the signal peptide and is left out with it; also called mutant cynomolgus GITR V1M/Q62P/S63G
T5 chain: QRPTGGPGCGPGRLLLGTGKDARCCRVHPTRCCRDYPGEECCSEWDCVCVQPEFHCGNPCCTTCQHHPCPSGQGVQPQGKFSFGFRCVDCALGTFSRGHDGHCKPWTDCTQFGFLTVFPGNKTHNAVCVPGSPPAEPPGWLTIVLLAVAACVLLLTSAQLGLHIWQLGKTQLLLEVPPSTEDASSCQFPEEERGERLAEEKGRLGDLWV


How the values were obtained:
[1] = biological target: T1, V1M cynomolgus GITR, expressed on …; assay: flow cytometry on 1624-5 cells
Excerpt: (§1) As further evidence for the binding characteristics of the anti-GITR antibodies, the binding of the antibodies to cynomolgus GITR was compared. The immature protein of cynomolgus GITR comprises the amino acid sequence of SEQ ID NO: 44. To increase protein expression, the first residue of the signal peptide of cynomolgus GITR was replaced by methionine, generating V1M cynomolgus GITR. A mutant cynomolgus GITR V1M/Q62P/S63G, where the amino acid residues at the positions 62 and 63 (GlnSer), numbered according to SEQ ID NO: 44, were replaced by the corresponding residues in human GITR (ProGly), was then generated. FIG. 7A is a sequence alignment between human GITR, V1M cynomolgus GITR, and V1M/Q62P/S63G cynomolgus GITR.

[2] = biological target: T2, GITR antigen (R&D systems, …); assay: Luminex suspension array, 20 µg/ml competitor pre-incubated with R-PE labeled GITR; captured antibody 231-32-15
Method: The bead mixture and the antigen/antibody mixture were mixed 1:1 (20 μl from each) and incubated for one additional hour under shaking conditions (20° C., 650rpm), Directly before the measurement, 40 μl of assay buffer was added to each well and analysis was performed using a Luminex® 200 system (Millipore) and a readout of 100 beads in 48 μl sample volume. Binding was determined using the […] values of the non-competed control (100% binding, only assay buffer as competing compound).

[3] = biological target: T3, human GITR G63A mutant, expressed on …; assay: flow cytometry on 1624-5 cells, 2 µg/ml, MFI ratio (monoclonal/polyclonal) of mutant against wild type
Method: (§2) All the mean fluorescence intensity (MFI) values were calculated as the mean of two measurements.
(§3) The percentages shown in FIG. 6B are the percentages of GITR positive cells in each plot.

[4] = biological target: T4, human GITR D60A mutant, expressed on …; assay: as above
Method: as §2, §3

[5] = biological target: T5, V1M/Q62P/S63G cynomolgus GITR, …; assay: flow cytometry on 1624-5 cells, 2 µg/ml
Excerpt: as §1

[6] = biological target: T2, GITR antigen (R&D systems, …); assay: SPR (BIAcore), GITR immobilized on CM5 chip, antibody at 300 nM, in tandem binning
Method: (§4) For epitope binning using surface plasmon resonance the “in tandem approach” was used (Abdiche, Y N et al., Analytical Biochemistry 386: 172-180 (2009)). For that purpose different chip surfaces were generated on a CM5 sensor chip (GE Healthcare, Series S CM5, BR-1005-30) using immobilization of different densities of GITR antigen (R&D systems, disulfide-linked homodimer; 689-GR). Flow cell 2 contained GITR antigen in low density (667 RU), medium density was assessed in flow cell 3 (1595 RU) and in flow cell 4, high density was achieved (4371 RU). In flow cell 1, ovalbumin (1289 RU, Pierce ThermoFisher 77120) was immobilized for reference. Immobilization was performed according to a standard protocol from the manufacturer (GE Healthcare) for amine coupling (activation of surface with 0.4 M EDC and 0.1 M NHS, GE Healthcare Amine coupling kit, BR-1000-50). Unreacted groups were inactivated with 1 M ethanol-amine-HCA, pH8.5. Afterwards anti-GITR antibodies were run through the different surfaces at a concentration of 300 nM (45 μg/ml) for 240 seconds at 5 μl/min. […] A dissociation time of 60 seconds was included before adding the competing antibody (300 nM, 5 μl/min).

[7] = biological target: T2, GITR antigen (R&D systems, …); assay: SPR (BIAcore), GITR immobilized on CM5 chip, antibody at 300 nM, applied after 231-32-15
Method: as §4

Binder	binding result [1]	binding result [2]	percentage of reduction in binding relative to wild type GITR [3]	percentage of reduction in binding relative to wild type GITR [4]	binding result [5]	binding result [6]	binding result [7]	percentage of increase in binding relative to wild type GITR [3]
pab1876 (antibody, human IgG1, V domains shown, Human IgG1 with T109S (Kabat) in the light chain constant domain) VH: QVQLVQSGAEVKKPGASVKVSCKGSGYTFTDYAMYWVRQAPGQGLEWIGVIRTYSGDVTYNQKFKDRATMTVDKSISTAYMELSRLRSDDTAVYYCAKSGTVRGFAYWGQGTLVTVSS VL: DIVMTQSPDSLAVSLGERATINCKSSQSLLNSGNQKNYLTWYQQKPGQPPKLLIYWASTRESGVPDRFSGSGSGTDFTLTISSLQAEDVAVYHCQNDYSYPYTFGQGTKLEIKR	no binding (tested: 2 µg/ml)	binds	59%	88%	binds	–	–	–
pab1875 (antibody, V domains shown) VH: QVQLVQSGAEVKKPGASVKVSCKGSGYTFTDYAMYWVRQAPGQGLEWIGVIRTYSGDVTYNQKFKDRATMTVDKSISTAYMELSRLRSDDTAVYYCAKSGTVRGFAYWGQGTLVTVSS VL: DIVMTQSPPTLSLSPGERVTLSCKSSQSLLNSGNQKNYLTWYQQKPGQAPRLLIYWASTRESGIPARFSGSGSGTDFTLTISSLQPEDFAVYHCQNDYSYPYTFGQGTKLEIK	–	binds	–	–	–	–	–	–
chimeric parental 231-32-15 antibody (antibody, V domains shown, elsewhere it was used as soluble antibody) VH: QVQLLQSGTELVRPGVSVKISCKGSGYTFTDYAMYWVKQSHAKSLEWIGVIRTYSGDVTYNQKFKDKATMTVDKSSSIAYMELARLSSEDSAIYYCAKSGTVRGFAYWGQGTLVTVSS VL: DIVMTQSPSSLTVTAGEKVIMSCKSSQSLLNSGNQKNYLTWYQQKPGQPPKLLIYWASTRESGVPDRFTGSGSGTDFTLTISSVQAEDLAVYHCQNDYSYPYTFGGGTKLEIK	no binding (tested: 2 µg/ml)	–	37%	82%	binds	binds	–	–
m6C8 (antibody, V domains shown, Generated based on the variable regions of antibody 6C8 of WO 06/105021; also called murine antibody 6C8) VH: QVTLKESGPGILKPSQTLSLTCSFSGFSLSTSGMGVGWIRQPSGKGLEWLAHIWWDDDKYYNPSLKSQLTISKDTSRNQVFLKITSVDTADAATYYCARTRRYFPFAYWGQGTLVTVSS VL: DIVMTQSQKFMSTSVGDRVSVTCKASQNVGTNVAWYQQKPGQSPKALIYSASYRYSGVPDRFTGSGSGTDFTLTINNVHSEDLAEYFCQQYNTDPLTFGAGTKLEIK	–	–	–	10%	–	–	binds	62%
